Common to all, as to assay: inhibition; angiotensin I substrate
Common to all, as to settings: tags: Calbiochem Human Skin

In series [1] the target is T1, chymase (native, human skin mast cell) (Homo sapiens, UniProt P23946 P23946:22-247).
T1 sequence: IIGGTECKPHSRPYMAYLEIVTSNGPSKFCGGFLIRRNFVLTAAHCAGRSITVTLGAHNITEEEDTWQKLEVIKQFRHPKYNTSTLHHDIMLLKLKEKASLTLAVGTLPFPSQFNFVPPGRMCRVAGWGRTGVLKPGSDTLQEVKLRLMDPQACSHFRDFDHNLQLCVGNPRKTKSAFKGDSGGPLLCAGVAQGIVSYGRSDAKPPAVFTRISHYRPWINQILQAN
Here is the method:
(§1) The total volume of solution for an enzyme reaction in the assay was set to 50 μL, and the reaction was performed in solution C buffer. At first, native (manufactured by Calbiochem) was diluted with solution C to give 5 μL thereof. Here, the native is chymase purified from human skin mast cell. The nucleic acid was serially diluted with solution C at a concentration of 0.0027-2 μM to give 25 μL thereof. The chymase solution (5 μL) and the nucleic acid solution (25 μL) were mixed, and the mixture was incubated at 37° C. for 5 min. On the other hand, […] angiotensin I (manufactured by PEPTIDE […], INC.) was prepared in solution C to give 20 μL thereof, which was incubated at 37° C. for 5 min. The angiotensin I solution was added to a mixture of chymase and nucleic acid to start an enzyme reaction. The final chymase concentration of the reaction solution was 0.5 nM, and the final substrate concentration was 50 μM. After reaction at 37° C. for 90 min, ice-cooled 30% trichloroacetic acid solution (25 μL) was added to quench the reaction. The whole mixture was centrifuged at 4° C., 14000 rpm for 10 min, and the supernatant (30 μL) was used for the next fluorescence induction reaction.
(§2) The above-mentioned supernatant (30 μL) was added to a 96 well plate (black, manufactured by Costar), a solution (15 μL) of 2% o-phthalaldehyde (manufactured by SIGMA) in methanol and 0.3M NaOH solution (170 μL) were added to each well, and the mixture was incubated at room temperature for 10 min. Then, 3M HCl solution (25 μL) was added to quench the reaction. The plate was set on a microplate reader SpectraMax190 (manufactured by Molecular device) and the fluorescence intensity was measured at an excitation wavelength of 355 nm and a fluorescence wavelength of 460 nm.
All nucleic acids of SEQ ID NO: 17(1)-17(25) were prepared by chemical synthesis. In the evaluation of SEQ ID NO: 17(1)-17(25), a method similar to the evaluation method of inhibitory activity against chymase shown in Example 1 by using angiotensin I as a substrate was used for measurement. In the Table, the IC₅₀ value is a mean of 2 or 3 measurements.

In series [2] the target is T1, chymase (native, human skin mast cell). As for the experimental part: as §1, §2
The nucleic acids of SEQ ID NO: 11-20 were all produced by chemical synthesis. In the evaluation of SEQ ID NO: 11-20, a method similar to the evaluation method of inhibitory activity against chymase shown in Example 1 by using angiotensin I as a substrate was used for measurement. […] The IC₅₀ value is a mean of 2 or 3 measurements.
This is another data set of the same source.

The target is the same in series [3]. Here is the method: as §1, §2
All nucleic acids of SEQ ID NO: 33(1)-33(18) were prepared by chemical synthesis. The aptamers shown by these sequences were measured by a method similar to the inhibitory activity evaluation method for chymase inhibitory activity shown in Example 1 by using angiotensin I as a substrate. In the Table, the IC₅₀ value is a mean of 2 or 3 measurements.
This is another data set of the same source.

B1: SEQ ID NO: 17(15) (mixed)
RNA: GAUGAUCGGACAUAACAUUGUUGGGGUGUCAA
modifications: idT-G(M)A(PHE)U(F)G(M)A(M)U(F)C(F)G(M)G(M)A(M)C(F)A(M)U(F)AAC(F)A(M)TTG(M)U(F)U(F)G(M)GG(M)G(M)TG(M)TCA(M)A(M)-idT (F=2'-F, M=2'-OMe, PHE=8-(propyl)phenyl-rA)
B1 returned an IC50 in series [1] of 0.13 nM.

B2: SEQ ID NO: 17(6) (mixed)
RNA: GAUGAUCGGACAUAACAUUGUUGGGGUGUCAA
modifications: idT-G(M)A(M)U(F)G(M)A(M)U(F)C(F)G(M)G(M)A(M)C(F)A(M)U(F)AAC(F)A(M)TTG(M)U(F)U(F)G(M)GG(M)G(M)TG(M)TCA(M)A(M)-idT (F=2'-F, M=2'-OMe)
The molecule B2 showed an IC50 in series [1] of 0.14 nM.

B3: SEQ ID NO: 17(4) (mixed)
RNA: GAUGAUCGGACAUAACAUUGUUGGGGUGUCAA
modifications: idT-G(M)A(M)U(F)G(M)A(M)U(F)C(F)G(M)G(M)A(M)C(F)A(M)U(F)AAC(F)ATTG(M)U(F)U(F)G(M)GG(M)G(M)U(F)G(M)U(F)C(F)A(M)A(M)-idT (F=2'-F, M=2'-OMe)
Regarding B3, 0.2 nM corresponded to half-maximal inhibition in series [1] (IC50).

B4: SEQ ID NO: 14 (ssRNA)
RNA: GGCAGAUGAUCGGACAUAACAUUGUUGGGGUGUCAAGCC
modifications: 2'-F pyrimidines (U, C); purines 2'-OH
On to B4, for which the midpoint of inhibition in series [2], the IC50, lay at 6.8 nM.

B5: SEQ ID NO: 11 (ssRNA)
RNA: GGGUCAGAUGAUCGGACAUAACAUUGUUGGGGUGUCAAGGCCC
modifications: 2'-F pyrimidines (U, C); purines 2'-OH
Consider B5, for which the IC50 in series [2] amounted to 54.7 nM.

B6: SEQ ID NO: 18 (ssRNA)
RNA: UGAUCGGACAUAACAUUGUUGGGGUGUCAA
modifications: 2'-F pyrimidines (U, C); purines 2'-OH
In series [2], B6 showed an IC50 of 2.1 nM.

B7: SEQ ID NO: 33(1) (mixed)
RNA: AUGAUCGGACAUAACUAAUUAGGGGUGUCAA
modifications: idT-A(M)U(M)G(M)A(M)U(F)C(F)G(M)G(M)A(M)C(M)A(M)U(M)AAC(M)U(F)AAU(F)U(M)AG(M)GG(M)G(M)TG(M)U(M)C(M)A(M)A(M)-idT (F=2'-F, M=2'-OMe)
The molecule B7 showed an IC50 in series [3] of 0.074 nM.

B8: SEQ ID NO: 33(13) (mixed)
RNA: AUGAUCGGACAUAACUAAUUAGGGGUGUCAA
modifications: idT-A(M)U(M)G(M)A(M)U(F)C(F)G(M)G(M)A(M)C(M)A(M)U(M)AAC(M)T(M)A(M)A(M)U(M)U(M)A(M)G(M)GG(M)G(M)TG(M)U(M)C(M)A(M)A(M)-idT (F=2'-F, M=2'-OMe)
In series [3], B8 returned an IC50 of 0.069 nM.

B9: SEQ ID NO: 33(7) (mixed)
RNA: AUGAUCGGACAUAACUAAUUAGGGGUGUCAA
modifications: idT-A(M)U(M)G(M)A(M)U(F)C(F)G(M)G(M)A(M)C(M)A(M)U(M)A(M)AC(M)U(F)A(M)A(M)U(M)U(M)A(M)G(M)GG(M)G(M)TG(M)U(M)C(M)A(M)A(M)-idT (F=2'-F, M=2'-OMe)
In turn, B9 had an IC50 in series [3] of 0.071 nM.

B10: SEQ ID NO: 33(8) (mixed)
RNA: AUGAUCGGACAUAACUAAUUAGGGGUGUCAA
modifications: idT-A(M)U(M)G(M)A(M)U(F)C(F)G(M)G(M)A(M)C(M)A(M)U(M)AA(M)C(M)U(F)A(M)A(M)U(M)U(M)A(M)G(M)GG(M)G(M)TG(M)U(M)C(M)A(M)A(M)-idT (F=2'-F, M=2'-OMe)
In turn, B10 showed an IC50 in series [3] of 0.061 nM.

B11: SEQ ID NO: 33(15) (mixed)
RNA: AUGAUCGGACAUAACUAAUUAGGGGUGUCAA
modifications: idT-A(M)U(M)G(M)A(M)U(F)C(F)G(M)G(M)A(M)C(M)A(M)U(M)AAC(M)U(F)A(M)A(M)U(M)T(M)A(M)G(M)GG(M)G(M)TG(M)U(M)C(M)A(M)A(M)-idT (F=2'-F, M=2'-OMe)
B11 had an IC50 in series [3] of 0.072 nM.

B12: SEQ ID NO: 33(5) (mixed)
RNA: AUGAUCGGACAUAACUAAUUAGGGGUGUCAA
modifications: idT-A(PHE)U(M)G(M)A(M)U(F)C(F)G(M)G(M)A(M)C(F)A(M)U(M)AAC(M)U(F)A(M)A(M)U(F)U(M)A(M)G(M)GG(M)G(M)TG(M)U(M)C(M)A(M)A(M)-idT (F=2'-F, M=2'-OMe, PHE=8-(propyl)phenyl-rA)
B12 displayed an IC50 in series [3] of 0.076 nM.

B13: SEQ ID NO: 33(16) (mixed)
RNA: AUGAUCGGACAUAACUAAUUAGGGGUGUCAA
modifications: idT-A(M)U(M)G(M)A(M)U(F)C(F)G(M)G(M)A(M)C(M)A(M)U(M)AAC(M)U(F)A(M)A(M)U(M)U(M)A(M)G(M)GG(M)G(M)T(M)G(M)U(M)C(M)A(M)A(M)-idT (F=2'-F, M=2'-OMe)
Molecule B13 yielded an IC50 in series [3] of 0.063 nM.

B14: SEQ ID NO: 33(11) (mixed)
RNA: AUGAUCGGACAUAACUAAUUAGGGGUGUCAA
modifications: idT-A(M)U(M)G(M)A(M)U(F)C(F)G(M)G(M)A(M)C(M)A(M)U(M)AAC(M)U(F)A(M)A(M)TU(M)A(M)G(M)GG(M)G(M)TG(M)U(M)C(M)A(M)A(M)-idT (F=2'-F, M=2'-OMe)
With B14, the IC50 in series [3] was found to be 0.051 nM.

B15: SEQ ID NO: 33(4) (mixed)
RNA: AUGAUCGGACAUAACUAAUUAGGGGUGUCAA
modifications: idT-A(PHE)U(M)G(M)A(M)U(F)C(F)G(M)G(M)A(M)C(F)A(M)U(M)AAC(M)U(F)A(M)A(M)U(F)U(M)A(M)G(M)GG(M)G(M)TG(M)TC(M)A(M)A(M)-idT (F=2'-F, M=2'-OMe, PHE=8-(propyl)phenyl-rA; printed 1J(F) read as U(F))
In turn, B15 gave an IC50 in series [3] of 0.072 nM.

B16: SEQ ID NO: 33(3) (mixed)
RNA: AUGAUCGGACAUAACUAAUUAGGGGUGUCAA
modifications: idT-A(PHE)U(M)G(M)A(M)U(F)C(F)G(M)G(M)A(M)C(M)A(M)U(M)AAC(M)U(F)A(M)A(M)U(F)U(M)A(M)G(M)GG(M)G(M)TG(M)U(M)C(M)A(M)A(M)-idT (F=2'-F, M=2'-OMe, PHE=8-(propyl)phenyl-rA)
In the case of B16, inhibition in series [3] was half-maximal at 0.071 nM (IC50).

B17: SEQ ID NO: 33(14) (mixed)
RNA: AUGAUCGGACAUAACUAAUUAGGGGUGUCAA
modifications: idT-A(M)U(M)G(M)A(M)U(F)C(F)G(M)G(M)A(M)C(M)A(M)U(M)AAC(M)U(F)A(M)A(M)T(M)U(M)A(M)G(M)GG(M)G(M)TG(M)U(M)C(M)A(M)A(M)-idT (F=2'-F, M=2'-OMe)
Consider B17, for which, in series [3], inhibition was half-maximal at 0.075 nM (IC50).

B18: SEQ ID NO: 33(10) (mixed)
RNA: AUGAUCGGACAUAACUAAUUAGGGGUGUCAA
modifications: idT-A(M)U(M)G(M)A(M)U(F)C(F)G(M)G(M)A(M)C(M)A(M)U(M)AAC(M)TA(M)A(M)U(M)U(M)A(M)G(M)GG(M)G(M)TG(M)U(M)C(M)A(M)A(M)-idT (F=2'-F, M=2'-OMe)
On to B18, for which, in series [3], the half-inhibitory concentration (IC50) was found to be 0.071 nM.

B19: SEQ ID NO: 33(6) (mixed)
RNA: AUGAUCGGACAUAACUAAUUAGGGGUGUCAA
modifications: idT-A(M)U(M)G(M)A(M)U(F)C(F)G(M)G(M)A(M)C(F)A(M)U(M)AAC(M)U(F)A(M)A(M)U(M)U(M)A(M)G(M)GG(M)G(M)TG(M)U(M)C(M)A(M)A(M)-idT (F=2'-F, M=2'-OMe)
B19: in series [3], the IC50 was determined as 0.053 nM.

B20: SEQ ID NO: 33(2) (mixed)
RNA: AUGAUCGGACAUAACUAAUUAGGGGUGUCAA
modifications: idT-A(M)U(M)G(M)A(M)U(F)C(F)G(M)G(M)A(M)C(F)A(M)U(M)AAC(M)U(F)AAU(F)U(M)AG(M)GG(M)G(M)TG(M)TC(M)A(M)A(M)-idT (F=2'-F, M=2'-OMe)
With B20, 0.078 nM corresponded to half-maximal inhibition in series [3] (IC50).

B21: SEQ ID NO: 33(12) (mixed)
RNA: AUGAUCGGACAUAACUAAUUAGGGGUGUCAA
modifications: idT-A(M)U(M)G(M)A(M)U(F)C(F)G(M)G(M)A(M)C(M)A(M)U(M)AAC(M)U(F)A(M)A(M)U(M)TA(M)G(M)GG(M)G(M)TG(M)U(M)C(M)A(M)A(M)-idT (F=2'-F, M=2'-OMe)
B21: in series [3], the IC50 came out at 0.048 nM.

B22: SEQ ID NO: 33(17) (mixed)
RNA: AUGAUCGGACAUAACUAAUUAGGGGUGUCAA
modifications: idT-A(PHE)U(M)G(M)A(M)U(F)C(F)G(M)G(M)A(M)C(M)A(M)U(M)AAC(M)U(F)A(M)A(M)U(M)U(M)A(M)G(M)GG(M)G(M)TG(M)U(M)C(M)A(M)A(M)-idT (F=2'-F, M=2'-OMe, PHE=8-(propyl)phenyl-rA)
Molecule B22 yielded an IC50 in series [3] of 0.038 nM.

The values are drawn from patent publication US20210002644, “ANTI-CHYMASE APTAMER AND USE FOR SAME” (RIBOMIC INC., published 2021).
